Experimental data as given in paper PMC3991700.

Each sequence was assayed against T1, FilR1 (Methanosaeta harundinacea 6Ac) (UniProt G7WMP6) (assay: EMSA). Settings: EMSA: 10 mM Tris-HCl pH 8.0, 50 mM KCl, 10 mM MgCl2, 1 mM DTT, 2.5% glycerol, 1% NP-40, 0.5 mM EDTA, 1 ug/uL poly dI-dC, 10 fmol (0.5 nM) biotin probe, 20 uL ….
T1 sequence: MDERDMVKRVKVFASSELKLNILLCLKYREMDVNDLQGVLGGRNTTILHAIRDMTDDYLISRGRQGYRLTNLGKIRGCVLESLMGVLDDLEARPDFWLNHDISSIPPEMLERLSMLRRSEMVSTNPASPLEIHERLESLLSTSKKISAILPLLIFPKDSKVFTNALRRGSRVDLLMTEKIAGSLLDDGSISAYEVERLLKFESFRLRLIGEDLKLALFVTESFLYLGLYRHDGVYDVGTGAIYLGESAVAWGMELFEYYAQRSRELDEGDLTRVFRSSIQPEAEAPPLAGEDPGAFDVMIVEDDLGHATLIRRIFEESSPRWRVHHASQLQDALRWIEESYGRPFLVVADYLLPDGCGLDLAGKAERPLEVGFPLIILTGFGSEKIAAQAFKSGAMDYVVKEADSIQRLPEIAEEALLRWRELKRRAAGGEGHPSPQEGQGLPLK

Row | Sequence | binding
1 | AAACCGCCCTCCTCTCCAGCCTCTCACCATTTCAACCTGGCGGATTGAGTTCAATCTAAATGGATTTTTATCAATTTAATTGGATATCCTCCCATCAAAACATAATCGGTAATTTTTAGCATTAAATCACCGTCACGATTTCACAAACTTAAATGTATATGTGTTCTAATCAATAAACTAAACAATAATATTCTCATTATACTAGTTGCCAATCCGAAAGGGTTTTATCTTCTACATGCGACTACCGAGCAAACCAGAGTACAGAAGGAGGTCAAGC (double strand) [cdhBEA promoter] | no binding
2 | AACCCCCATAAATGATAGATCCGAAAGTAATTAAATAAATCGGTCGGTCTTCGGCCGCGGGTGGAACCAGAGGATCCCATCAGCTATGAGGGGGATCGTCAGGTGGACCGCCCTTTGAAGGATCATCCATCTCCTGAGACCTCCAGACCCCGGCGAGATGGCCGTTAGTCTCCATAAGCTCTCTCCAGCTGCCGGATTCGACAAATCGCCCCCTCTCCAGGACCTGGATCATTACCGAGGAGAGGTTTTGCCC (double strand) [Pomp] | binds
3 | AACGGGTTCCATCTCGATATGATCAAGGGGTGGGGGGTTTATTAATAGGTTGAGGTCCCCCTCTCGAGGCCCGGAAAGGGCAAGAGATCCCCCGATAGATTTTTATCGACCGCATATTATCGAATTTTCCCCCGGCAGAGAGGCGGAGGCTTTATACCATTTTGGCATATCGAGGGTGAGTGGGTGAATCGGCATGGCGGAG (double strand) [Pacs1] | binds
4 | AATCCACCTAAACTCACCCATATTATGCCAGTTTGAAGCCTTTTAGGACCGACCGCATCACTGCTTAGCGGTAGTGATGCTAATCGATTTTCTCATAAACCTTTTATATCAGTACCTTGTGTTTAGCTCTTACGGCTAATGGAGGTAAAAAATGAGCGGCGAATTGGTG (double strand) [fpo promoter] | no binding
5 | ACCCGTTTGACCATATCCCTTTCGTCCATGTTGAGGTCCCCCTCATTTTAAGGGCCTAAATGGCGTAGATCCACGAAAGCCGGGAGCGATTCGCGATCCGACGGAACAACTCCCCAGTTATCGGCTTGATATCAGCCTCCACCCTCCAATTTCGCGAGCCCATCTCCTCGGCTTGAGTTTTTTCCTTGATTTCGCCGTATAAGTAGCTTCCGACGATCCCGATGCTGATAGAAGCTCTGAAGTTCTCATCGTACCG (double strand) [PfilR1 (filR1 promoter)] | binds
6 | AGATGAAACCAGAATTATCGTTGAAGATCCCTCCCTCCGAAGATCTCCGATGGATCTCATCGATGGAACCATCTGAGGAGGCGGATCGTCGTCACCGGTTCCCCACCCGCGATGGACAATTATTCGTTATACTCGGAGGGTTATCTTCATAAACCACGGACGGATGACAGTAAGGCAGGTGCGAGGCCTTCATCACCCAGTGGACGGAGAGACAATCTCGTTTTGGAGGAGGTTGAAAGGAAG (double strand) [PfilI-R2 (filI-filR2 promoter)] | binds
7 | CCATCCCTCTCCCTCAAGATATAGGAGGGAAAAGGTGGACGCTCACTTGGCGAGCGTCACCTTCTCGATGGTAACCTTGGCGTCCTTGAGGATCAGCTTGATCCCGCCCGCTCCGCCCGCCGACATGGCAAAGGCGGGGGCAGCTCCTGCCGCCGGGGCTGCTGCTGCGGCCGGAGCCGCCGCGGCAGGTGCTCCAGGTTCCTTCGACTTCAGCTTCAGTGACAGTTTCTTGGCCATTCCTATAACCTCCTACACCCTCAAATACAGAGATACTATAAATTC (double strand) [cdhCD promoter] | no binding
8 | CCATTAGGAGCCGTCGATTCAGCTGTTTTTGATTTTCAGGATTTATACCCGGCCGATATTCCATATTTTGGAATCTATAATGATTAAAAGGCCACTAACCTTATTAATCATGAAGATTACTAATCGACATGGTCCAGTCGAGCGTTCTCTATAGACAAACGGAGAGAATGCGTGGCAGATTCTGGTTTGAAATCTCCGTATTGGAGCTGGTATCTGCCCGGGGATCTGGGGAGAGAAGAGTGCAAAATATTCGATCTTTGATTAAGGAGGGTTGAAATTGGCT (double strand) [Pacs4] | binds
9 | GCTAACCATGTCCATTTGCTCTCCTCCTTTTTAATTCTTGCCAAATCATAGTAATCTATGAAAAATTTGGCCAGTAACGTACTGACTATCGGTTACTGGACTTATAAAGCTTTCGAAATGGAAATGAAAGCCCCATTTTTGTTTTTTGTCCCGGTTTTAGTGAGCCCGAAAGATCTGAAATCCCCAAATAAAAGCCTGAAATATAAAAAAAACAAGGAAGAACAGTTTGGGGCGAA (double strand) [Pmtr] | binds
10 | GGTCGGAGAGGCTGAGGGCGATCCCCGTCGTCGTCCTCACCACCTCCACCAGCGACGACGACCTCCGGCGGGCCTACTCCAACCACGTCAACAGCTACCTCATCAAGCCCCTCAGCTTCGAGGACCTGAAGCGGACCGTCGAGGAGATCAAAGAGTACTGGCTTGGATGGAACCGCTCCCCCGGACCCGCGTGAAAGACCCCAGAGGTGAGCGAAACCGAGGCCTTCACCCATGACGCTGCGCC (double strand) [UfilI (internal fragment of filI)] | no binding
